Assay results from the RNAGym collection of RNA variant scans (doi:10.1021/acssynbio.7b00057).

B1: Pistol ribozyme (parent)
chain: GGGUCGUUGUUCCAUAAUCGCGUGGAUAUGGCACGCAAGUUUCUACCGGGCACCGUAAAUGUCCGACUGGAGCCGUUCGGGCGGCUAUAAACAGACCUCAGGCCCGAAGCGUGGCGGCACCUGCCGCCGGUGGUAAAAAAGAUCGGAAGAGCACACGUCU

Variants of: B1
Test: aptazyme ON/OFF ratio, guanine; higher = stronger switching; co-transcriptional cleavage with and without guanine

Row | Variant | aptazyme ON/OFF ratio
1 | GGGUCGUAGUAGUAUAAUCGCGUGGAUAUGGCACGCAAGUUUCUACCGGGCACCGUAAAUGUCCGACUGGAGCCGUUCGGGCGGCUAUAAACAGACCUCAGGCCCGAAGCGUGGCGGCACCUGCCGCCGGUGGUAAAAAAGAUCGGAAGAGCACACGUCU | 1.17
2 | GGGUCGCAUAGCGAUAAUCGCGUGGAUAUGGCACGCAAGUUUCUACCGGGCACCGUAAAUGUCCGACUGGAGCCGUUCGGGCGGCUAUAAACAGACCUCAGGCCCGAAGCGUGGCGGCACCUGCCGCCGGUGGUAAAAAAGAUCGGAAGAGCACACGUCU | 1.03
3 | GGGUCGAGGGGGAAUAAUCGCGUGGAUAUGGCACGCAAGUUUCUACCGGGCACCGUAAAUGUCCGACUGGAGCCGUUCGGGCGGCUAUAAACAGACCUCAGGCCCGAAGCGUGGCGGCACCUGCCGCCGGUGGUAAAAAAGAUCGGAAGAGCACACGUCU | 1.45
4 | GGGUCGAGUCGGCAUAAUCGCGUGGAUAUGGCACGCAAGUUUCUACCGGGCACCGUAAAUGUCCGACUGGAGCCGUUCGGGCGGCUAUAAACAGACCUCAGGCCCGAAGCGUGGCGGCACCUGCCGCCGGUGGUAAAAAAGAUCGGAAGAGCACACGUCU | 1.45
5 | GGGUCGGGACAUGAUAAUCGCGUGGAUAUGGCACGCAAGUUUCUACCGGGCACCGUAAAUGUCCGACUGGAGCCGUUCGGGCGGCUAUAAACAGACCUCAGGCCCGAAGCGUGGCGGCACCUGCCGCCGGUGGUAAAAAAGAUCGGAAGAGCACACGUCU | 1.08
6 | GGGUCGGAGUCGAAUAAUCGCGUGGAUAUGGCACGCAAGUUUCUACCGGGCACCGUAAAUGUCCGACUGGAGCCGUUCGGGCGGCUAUAAACAGACCUCAGGCCCGAAGCGUGGCGGCACCUGCCGCCGGUGGUAAAAAAGAUCGGAAGAGCACACGUCU | 1.22
7 | GGGUCGUGACCCUAUAAUCGCGUGGAUAUGGCACGCAAGUUUCUACCGGGCACCGUAAAUGUCCGACUGGAGCCGUUCGGGCGGCUAUAAACAGACCUCAGGCCCGAAGCGUGGCGGCACCUGCCGCCGGUGGUAAAAAAGAUCGGAAGAGCACACGUCU | 1.03
8 | GGGUCGAAGUCACAUAAUCGCGUGGAUAUGGCACGCAAGUUUCUACCGGGCACCGUAAAUGUCCGACUGGAGCCGUUCGGGCGGCUAUAAACAGACCUCAGGCCCGAAGCGUGGCGGCACCUGCCGCCGGUGGUAAAAAAGAUCGGAAGAGCACACGUCU | 1.36
9 | GGGUCGCAGUUGUAUAAUCGCGUGGAUAUGGCACGCAAGUUUCUACCGGGCACCGUAAAUGUCCGACUGGAGCCGUUCGGGCGGCUAUAAACAGACCUCAGGCCCGAAGCGUGGCGGCACCUGCCGCCGGUGGUAAAAAAGAUCGGAAGAGCACACGUCU | 1.3
10 | GGGUCGAGCCGAUAUAAUCGCGUGGAUAUGGCACGCAAGUUUCUACCGGGCACCGUAAAUGUCCGACUGGAGCCGUUCGGGCGGCUAUAAACAGACCUCAGGCCCGAAGCGUGGCGGCACCUGCCGCCGGUGGUAAAAAAGAUCGGAAGAGCACACGUCU | 1.06
11 | GGGUCGAGAGAGUAUAAUCGCGUGGAUAUGGCACGCAAGUUUCUACCGGGCACCGUAAAUGUCCGACUGGAGCCGUUCGGGCGGCUAUAAACAGACCUCAGGCCCGAAGCGUGGCGGCACCUGCCGCCGGUGGUAAAAAAGAUCGGAAGAGCACACGUCU | 1.22
12 | GGGUCGACGGGCUAUAAUCGCGUGGAUAUGGCACGCAAGUUUCUACCGGGCACCGUAAAUGUCCGACUGGAGCCGUUCGGGCGGCUAUAAACAGACCUCAGGCCCGAAGCGUGGCGGCACCUGCCGCCGGUGGUAAAAAAGAUCGGAAGAGCACACGUCU | 1.39
13 | GGGUCGUGAGCGAAUAAUCGCGUGGAUAUGGCACGCAAGUUUCUACCGGGCACCGUAAAUGUCCGACUGGAGCCGUUCGGGCGGCUAUAAACAGACCUCAGGCCCGAAGCGUGGCGGCACCUGCCGCCGGUGGUAAAAAAGAUCGGAAGAGCACACGUCU | 1.27
14 | GGGUCGCUUCAUUAUAAUCGCGUGGAUAUGGCACGCAAGUUUCUACCGGGCACCGUAAAUGUCCGACUGGAGCCGUUCGGGCGGCUAUAAACAGACCUCAGGCCCGAAGCGUGGCGGCACCUGCCGCCGGUGGUAAAAAAGAUCGGAAGAGCACACGUCU | 1.16
15 | GGGUCGGACACAGAUAAUCGCGUGGAUAUGGCACGCAAGUUUCUACCGGGCACCGUAAAUGUCCGACUGGAGCCGUUCGGGCGGCUAUAAACAGACCUCAGGCCCGAAGCGUGGCGGCACCUGCCGCCGGUGGUAAAAAAGAUCGGAAGAGCACACGUCU | 1.01
16 | GGGUCGCUCAUUAAUAAUCGCGUGGAUAUGGCACGCAAGUUUCUACCGGGCACCGUAAAUGUCCGACUGGAGCCGUUCGGGCGGCUAUAAACAGACCUCAGGCCCGAAGCGUGGCGGCACCUGCCGCCGGUGGUAAAAAAGAUCGGAAGAGCACACGUCU | 1.08
17 | GGGUCGAGAUCACAUAAUCGCGUGGAUAUGGCACGCAAGUUUCUACCGGGCACCGUAAAUGUCCGACUGGAGCCGUUCGGGCGGCUAUAAACAGACCUCAGGCCCGAAGCGUGGCGGCACCUGCCGCCGGUGGUAAAAAAGAUCGGAAGAGCACACGUCU | 1.46
18 | GGGUCGUGGCUACAUAAUCGCGUGGAUAUGGCACGCAAGUUUCUACCGGGCACCGUAAAUGUCCGACUGGAGCCGUUCGGGCGGCUAUAAACAGACCUCAGGCCCGAAGCGUGGCGGCACCUGCCGCCGGUGGUAAAAAAGAUCGGAAGAGCACACGUCU | 1.34

Row | Variant | aptazyme ON/OFF ratio
19 | GGGUCGGUAAUAAAUAAUCGCGUGGAUAUGGCACGCAAGUUUCUACCGGGCACCGUAAAUGUCCGACUGGAGCCGUUCGGGCGGCUAUAAACAGACCUCAGGCCCGAAGCGUGGCGGCACCUGCCGCCGGUGGUAAAAAAGAUCGGAAGAGCACACGUCU | 1.06
20 | GGGUCGGUAGGUUAUAAUCGCGUGGAUAUGGCACGCAAGUUUCUACCGGGCACCGUAAAUGUCCGACUGGAGCCGUUCGGGCGGCUAUAAACAGACCUCAGGCCCGAAGCGUGGCGGCACCUGCCGCCGGUGGUAAAAAAGAUCGGAAGAGCACACGUCU | 1.1
21 | GGGUCGGGAACCGAUAAUCGCGUGGAUAUGGCACGCAAGUUUCUACCGGGCACCGUAAAUGUCCGACUGGAGCCGUUCGGGCGGCUAUAAACAGACCUCAGGCCCGAAGCGUGGCGGCACCUGCCGCCGGUGGUAAAAAAGAUCGGAAGAGCACACGUCU | 1.06
22 | GGGUCGGUAGACAAUAAUCGCGUGGAUAUGGCACGCAAGUUUCUACCGGGCACCGUAAAUGUCCGACUGGAGCCGUUCGGGCGGCUAUAAACAGACCUCAGGCCCGAAGCGUGGCGGCACCUGCCGCCGGUGGUAAAAAAGAUCGGAAGAGCACACGUCU | 1.05
23 | GGGUCGAGCGUCAAUAAUCGCGUGGAUAUGGCACGCAAGUUUCUACCGGGCACCGUAAAUGUCCGACUGGAGCCGUUCGGGCGGCUAUAAACAGACCUCAGGCCCGAAGCGUGGCGGCACCUGCCGCCGGUGGUAAAAAAGAUCGGAAGAGCACACGUCU | 1.52
24 | GGGUCGUAGCUCCAUAAUCGCGUGGAUAUGGCACGCAAGUUUCUACCGGGCACCGUAAAUGUCCGACUGGAGCCGUUCGGGCGGCUAUAAACAGACCUCAGGCCCGAAGCGUGGCGGCACCUGCCGCCGGUGGUAAAAAAGAUCGGAAGAGCACACGUCU | 4.03
25 | GGGUCGCAGCCAAAUAAUCGCGUGGAUAUGGCACGCAAGUUUCUACCGGGCACCGUAAAUGUCCGACUGGAGCCGUUCGGGCGGCUAUAAACAGACCUCAGGCCCGAAGCGUGGCGGCACCUGCCGCCGGUGGUAAAAAAGAUCGGAAGAGCACACGUCU | 1.18
26 | GGGUCGCAAGGUAAUAAUCGCGUGGAUAUGGCACGCAAGUUUCUACCGGGCACCGUAAAUGUCCGACUGGAGCCGUUCGGGCGGCUAUAAACAGACCUCAGGCCCGAAGCGUGGCGGCACCUGCCGCCGGUGGUAAAAAAGAUCGGAAGAGCACACGUCU | 1.11
27 | GGGUCGAGCCUUAAUAAUCGCGUGGAUAUGGCACGCAAGUUUCUACCGGGCACCGUAAAUGUCCGACUGGAGCCGUUCGGGCGGCUAUAAACAGACCUCAGGCCCGAAGCGUGGCGGCACCUGCCGCCGGUGGUAAAAAAGAUCGGAAGAGCACACGUCU | 1.14
28 | GGGUCGUGGAUGAAUAAUCGCGUGGAUAUGGCACGCAAGUUUCUACCGGGCACCGUAAAUGUCCGACUGGAGCCGUUCGGGCGGCUAUAAACAGACCUCAGGCCCGAAGCGUGGCGGCACCUGCCGCCGGUGGUAAAAAAGAUCGGAAGAGCACACGUCU | 1.16
29 | GGGUCGCUCACCAAUAAUCGCGUGGAUAUGGCACGCAAGUUUCUACCGGGCACCGUAAAUGUCCGACUGGAGCCGUUCGGGCGGCUAUAAACAGACCUCAGGCCCGAAGCGUGGCGGCACCUGCCGCCGGUGGUAAAAAAGAUCGGAAGAGCACACGUCU | 1.02
30 | GGGUCGUAAGCAGAUAAUCGCGUGGAUAUGGCACGCAAGUUUCUACCGGGCACCGUAAAUGUCCGACUGGAGCCGUUCGGGCGGCUAUAAACAGACCUCAGGCCCGAAGCGUGGCGGCACCUGCCGCCGGUGGUAAAAAAGAUCGGAAGAGCACACGUCU | 1.08
31 | GGGUCGUUAUCAAAUAAUCGCGUGGAUAUGGCACGCAAGUUUCUACCGGGCACCGUAAAUGUCCGACUGGAGCCGUUCGGGCGGCUAUAAACAGACCUCAGGCCCGAAGCGUGGCGGCACCUGCCGCCGGUGGUAAAAAAGAUCGGAAGAGCACACGUCU | 1.06
32 | GGGUCGAGCUCAUAUAAUCGCGUGGAUAUGGCACGCAAGUUUCUACCGGGCACCGUAAAUGUCCGACUGGAGCCGUUCGGGCGGCUAUAAACAGACCUCAGGCCCGAAGCGUGGCGGCACCUGCCGCCGGUGGUAAAAAAGAUCGGAAGAGCACACGUCU | 1.66
33 | GGGUCGCAAUUAUAUAAUCGCGUGGAUAUGGCACGCAAGUUUCUACCGGGCACCGUAAAUGUCCGACUGGAGCCGUUCGGGCGGCUAUAAACAGACCUCAGGCCCGAAGCGUGGCGGCACCUGCCGCCGGUGGUAAAAAAGAUCGGAAGAGCACACGUCU | 1.15
34 | GGGUCGACGCCAGAUAAUCGCGUGGAUAUGGCACGCAAGUUUCUACCGGGCACCGUAAAUGUCCGACUGGAGCCGUUCGGGCGGCUAUAAACAGACCUCAGGCCCGAAGCGUGGCGGCACCUGCCGCCGGUGGUAAAAAAGAUCGGAAGAGCACACGUCU | 1.16
35 | GGGUCGUCUGCAAAUAAUCGCGUGGAUAUGGCACGCAAGUUUCUACCGGGCACCGUAAAUGUCCGACUGGAGCCGUUCGGGCGGCUAUAAACAGACCUCAGGCCCGAAGCGUGGCGGCACCUGCCGCCGGUGGUAAAAAAGAUCGGAAGAGCACACGUCU | 1.22
36 | GGGUCGGCACUAGAUAAUCGCGUGGAUAUGGCACGCAAGUUUCUACCGGGCACCGUAAAUGUCCGACUGGAGCCGUUCGGGCGGCUAUAAACAGACCUCAGGCCCGAAGCGUGGCGGCACCUGCCGCCGGUGGUAAAAAAGAUCGGAAGAGCACACGUCU | 1.14
